Measurements reported in the supplement of paper PMC10201428.
± gives the standard deviation of the averaged measurements.

Columns and labels:
[1] = system: VchCAST RNA-guided transposition machinery (E. coli BL21(DE3) host, lacZ target); experiment: relative integration efficiency (T-RL orientation) vs wild-type transposon end (log2 (normalized fold change)); transposon end mutated: right end (5 bp flank + 75 bp right end); higher = more efficient transposition
How it was run: (§1)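 Barcode abundances in input plasmids and in genomic integration junctions were obtained by PCR amplification and Illumina sequencing. These came from E. coli BL21(DE3) co-transformed with a T7-driven effector plasmid and a pUC57 donor carrying 1549 left-end or 1849 right-end transposon variants, then plated with 0.1 mM IPTG at 37°C for 18 h. Relative integration efficiency is the output/input fold change, normalised to reference barcodes and log-transformed.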

[2] = system: VchCAST RNA-guided transposition machinery (E. coli BL21(DE3) host, lacZ target); experiment: relative integration efficiency (T-LR orientation) vs wild-type transposon end (log2 (normalized fold change)); transposon end mutated: right end (5 bp flank + 75 bp right end); higher = more efficient transposition
How it was run: as §1

In the case of “ACATTTGTTGATAAAACCATAAAATGATTATTACACCCATAAATTGATAATTATCACACCCATAAATTGATATTGCCTCTGATCATAGTCAGACCAACATTGCTACGACCCGTATTCGCACCGACAC”, the “relative integration efficiency (log2)” value [1] is reported as -1.05 ± 0.087 and the “relative integration efficiency (log2)” value [2] is reported as -0.755 ± 0.22.
In the case of “ACATTTGTTGATAAAACCATAAAATGATTATTAGAAACCATAATCTGAAATTATCACACCCATAAATTGATATTGCCTCTGATCATAGTCAGACCAACATTGCTACGACCCGTATTCGCACCGACAC”, the “relative integration efficiency (log2)” value [1] is reported as -3.26 ± 0.065 and the “relative integration efficiency (log2)” value [2] is reported as -2.22 ± 0.34.
In the case of “ACATTTGTTGATAAAACCATAAAATGATTTTAAGAAACCATAATCTGAAATAATCACACCCATAAATTGATATTGCCTCTGATCATAGTCAGACCAACATTGCTACGACCCGTATTCGCACCGACAC”, the “relative integration efficiency (log2)” value [1] is reported as -3.13 ± 0.069 and the “relative integration efficiency (log2)” value [2] is reported as -1.78 ± 0.24.
In the case of “ACATTTGTTGATAAAACCATAAAATGATTTTTAGAAACCATAATCTGAAATTATCACACCCATAAATTGATATTGCCTCTGATCATAGTCAGACCAACATTGCTACGACCCGTATTCGCACCGACAC”, the “relative integration efficiency (log2)” value [1] is reported as -2.97 ± 0.17 and the “relative integration efficiency (log2)” value [2] is reported as -2.56 ± 0.33.
In the case of “ACATTTGTTGATAAAACCATACGTTGATTTTAAGAAACCATACGCTGAAATAATCACACCCATAAATTGATATTGCCTCTGATCATAGTCAGACCAACATTGCTACGACCCGTATTCGCACCGACAC”, the “relative integration efficiency (log2)” value [1] is reported as -6.06 ± 0.18 and the “relative integration efficiency (log2)” value [2] is reported as -3.87 ± 0.6.
For “ACATTTGTTGATAAAACCATACGTTGATTTTACCACCCATAAATTGATAATTATCACACCCATAAATTGATATTGCCTCTGATCATAGTCAGACCAACATTGCTACGACCCGTATTCGCACCGACAC”, the “relative integration efficiency (log2)” value [1] was -2.65 ± 0.17 and the “relative integration efficiency (log2)” value [2] was -2.98 ± 0.21.
In the case of “ACATTTGTTGATAAAACCATACGTTGATTTTACGAAACCATACGCTGAAATAATCACACCCATAAATTGATATTGCCTCTGATCATAGTCAGACCAACATTGCTACGACCCGTATTCGCACCGACAC”, the “relative integration efficiency (log2)” value [1] is reported as -5.63 ± 0.18 and the “relative integration efficiency (log2)” value [2] is reported as -3.87 ± 1.2.
“ACATTTGTTGATAACACCATAAAATGATAATTACACCCATAAATTGATAATTATCACACCCATAAATTGATATTGCCTCTGATCATAGTCAGACCAACATTGCTACGACCCGTATTCGCACCGACAC” was tested, and the “relative integration efficiency (log2)” value [1] was -0.41 ± 0.018 and the “relative integration efficiency (log2)” value [2] was -0.747 ± 0.13.
With “ACATTTGTTGATAACCAACGCCCCGTCGCCGGCACAAACGCCCGGTCGCCGGCTCAACAAACGCCCGGTCGCGGTACTCTGATCATAGTCAGACCAACATTGCTACGACCCGTATTCGCACCGACAC” the “relative integration efficiency (log2)” value [1] was -8.29 ± 1.1 and the “relative integration efficiency (log2)” value [2] was -6.65 ± 2.
“ACATTTGTTGATAACCAACGCCCCGTCGCCGGCACAAACGCCCGGTCGCCGGCTCACACCCATAAATTGATATTGCCTCTGATCATAGTCAGACCAACATTGCTACGACCCGTATTCGCACCGACAC” was tested, and the “relative integration efficiency (log2)” value [1] was -7.79 ± 0.73 and the “relative integration efficiency (log2)” value [2] was under -10.
“ACATTTGTTGATAACCAACGCCCCGTCGCCGGCCACCCATAAATTGATAATTATCAACAAACGCCCGGTCGCGGTACTCTGATCATAGTCAGACCAACATTGCTACGACCCGTATTCGCACCGACAC” was tested, and the “relative integration efficiency (log2)” value [1] was -7.3 ± 0.31 and the “relative integration efficiency (log2)” value [2] was -3.55 ± 0.48.
With “ACATTTGTTGATAACCACATAAAATGATAATTACACCCATAAATTGATAATTATCACACCCATAAATTGATATTGCCTCTGATCATAGTCAGACCAACATTGCTACGACCCGTATTCGCACCGACAC” the “relative integration efficiency (log2)” value [1] was -0.808 ± 0.095 and the “relative integration efficiency (log2)” value [2] was -1.28 ± 0.093.
With “ACATTTGTTGATACAAAAATAAAATGATAATTACACCCATAAATTGATAATTATCACACCCATAAATTGATATTGCCTCTGATCATAGTCAGACCAACATTGCTACGACCCGTATTCGCACCGACAC” the “relative integration efficiency (log2)” value [1] was -0.328 ± 0.18 and the “relative integration efficiency (log2)” value [2] was -0.268 ± 0.48.
With “ACATTTGTTGATACAAAACGAAAATGATAATTACACCCATAAATTGATAATTATCACACCCATAAATTGATATTGCCTCTGATCATAGTCAGACCAACATTGCTACGACCCGTATTCGCACCGACAC” the “relative integration efficiency (log2)” value [1] was -3.95 ± 0.13 and the “relative integration efficiency (log2)” value [2] was -6.65 ± 0.98.
“ACATTTGTTGATACAAAACGCCCCGTCGCCGGCACAAACGCCCGGTCGCCGGCGACACAAACGCCCGGTCGCGGTAAGAGGATCATAGTCAGACCAACATTGCTACGACCCGTATTCGCACCGACAC” was tested, and the “relative integration efficiency (log2)” value [1] was -7.52 ± 1 and the “relative integration efficiency (log2)” value [2] was -5.49 ± 0.46.
“ACATTTGTTGATACAAACATAAAATGATAATTACACACATAAATTGATAATTATCACACACATAAATTGATATTGCCTCTGATCATAGTCAGACCAACATTGCTACGACCCGTATTCGCACCGACAC” was tested, and the “relative integration efficiency (log2)” value [1] was -1.41 ± 0.22 and the “relative integration efficiency (log2)” value [2] was -0.182 ± 0.14.
